Experimental data taken from US20170174783A1 (Zymeworks, published 2017).

Key:
[1] = target: T1, HER2 on the surface of human tumour cell lines (human, UniProt P04626 23-1255); assay: flow cytometry on SKOV3 cells
T1 construct: whole, on cells; also called ErbB2; Her2 receptor
Experimental: (§1) Binding of the test antibodies to the surface of SKOV3 cells was determined by flow cytometry. Cells were washed with PBS and resuspended in DMEM at 1×10⁵ cells/100 μl. 100 μl cell suspension was added into each microcentrifuge tube, followed by 10 μl/tube of the antibody variants. The tubes were incubated for 2 hr 4° C. on a rotator. The microcentrifuge tubes were centrifuged for 2 min 2000 RPM at room temperature and the cell pellets washed with 500 μl media. Each cell pellet was resuspended 100 μl of fluorochrome-labelled secondary antibody diluted in media to 2 μg/sample. The samples were then incubated for 1 hr at 4° C. on a rotator. After incubation, the cells were centrifuged for 2 min at 2000 RPM and washed in media. The cells were resuspended in 500 μl media, filtered in tube containing 5 μl propidium iodide (PI) and analyzed on a BD LSRII flow cytometer according to the manufacturer's instructions.

[2] = target: T1, HER2 on the surface of human tumour …; assay: flow cytometry on MALME-3M cells
[3] = target: T1, HER2 on the surface of human tumour …; assay: flow cytometry on SKOV3 cells; remark: listed apart in the source
Experimental: as §1

- Kd [1]: 12.4 nM
- EC50 (read off the curve) [2]: ~30 nM
- fold difference in Bmax, OA4-scFv-BID2 against FSA-scFv-BID2 [3]: 1.96 fold
- fold difference in KD, OA4-scFv-BID2 against FSA-scFv-BID2 [3]: 2.03 fold
B1: OA4-scFv-BID2 (antibody)
chain 1: QVQLVQSGAEVKKPGESLKISCKGSGYSFTSYWIAWVRQMPGKGLEYMGLIYPGDSDTKYSPSFQGQVTISVDKSVSTAYLQWSSLKPSDSAVYFCARHDVGYCTDRTCAKWPEWLGVWGQGTLVTVSSGGGGSSGGGSGGGGSQSVLTQPPSVSAAPGQKVTISCSGSSSNIGNNYVSWYQQLPGTAPKLLIYDHTNRPAGVPDRFSGSKSGTSASLAISGFRSEDEADYYCASWDYTLSGWVFGGGTKLTVLGAAEPKSSDKTHTCPPCPAPELLGGPSVFLFPPKPKDTLMISRTPEVTCVVVDVSHEDPEVKFNWYVDGVEVHNAKTKPREEQYNSTYRVVSVLTVLHQDWLNGKEYKCKVSNKALPAPIEKTISKAKGQPREPQVYTYPPSRDELTKNQVSLTCLVKGFYPSDIAVEWESNGQPENNYKTTPPVLDSDGSFALVSKLTVDKSRWQQGNVFSCSVMHEALHNHYTQKSLSLSPGK
chain 2: not shown
notes: also called 878
